Measured values: the supplement of paper PMC10567573
± gives the standard deviation.

Test: protein stability index of a GFP-peptide fusion (GPS, HEK-293T) (PSI 1-6); higher = more stable
Conditions: c terminus: a fixed tail appended
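Further: 24-mer peptide tiles fused after GFP, lentivirally expressed, FACS-sorted into six equal bins by GFP/DsRed ratio, decoded by Illumina sequencing, PSI is the read-weighted mean bin number.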

Sequence	protein stability index (treatment: DMSO)	protein stability index (treatment: MLN4924 1 uM, 8 h)
LSPEVLNKQGHGCESDIWALGCVM [PLK2]	2.09 ± 0.15	2.14 ± 0.29
LSSTLLSFSTAIGRTCITDLQLTV [MFSD9]	3.11 ± 0.17	3.18 ± 0.39
LSSVECLDYTADEDGVWYSVAPMN [KLHL12]	3.59 ± 0.19	3.74 ± 0.48
LTCDSSTSSSDDDEEVSGSSKTIT [C18orf25]	5.4 ± 0.26	5.46 ± 0.21
LTINPAKRITASEALKHPWICQRS [CAMK2D]	2.57 ± 0.1	2.72 ± 0.25
LTIRESILINNGSRIKGWWVFHHY [TMEM120A]	3.1 ± 0.7	2.73 ± 0.92
LTKHEWTEALGCDPPLSQDERTHR [ZNF8]	4.6 ± 0.2	4.72 ± 0.17
LTLVFFVQITGQPNILFYASTVLK [SLC2A12]	3.19 ± 0.51	3.5 ± 0.59
LTLYNPTGTALRFRVLCTAPAKYT [MOSPD3]	2.79 ± 0.65	2.69 ± 0.48
LTVNTEAQQLLREFEEATGEAGWG [FOXJ1]	4.55 ± 0.14	4.62 ± 0.073
LTWSELFVLNAAQCSMPLHVAPLL [NR2F2]	2.98 ± 0.21	3.16 ± 0.32
LVLNSQQSDTLEQREEHELVHVME [RAD54B]	4.59 ± 0.24	4.36 ± 0.21
LVQRQMSVIEEDLEEFQLALKHYV [NECAB1]	2.32 ± 0.36	2.6 ± 0.23
LVTYTNRYIIFKRNTLNQPCSGSV [GMCL1]	2.29 ± 0.24	2.07 ± 0.2
LYFATLRNRPKSTVNTHYFSIDEE [CDC14A]	2.11 ± 0.17	2.15 ± 0.32
LYIFATCLGLSYDGLLGDNQIMPK [MAGEA3]	2.92 ± 0.34	2.78 ± 0.52
MARLQEEHGDQLLSIRCQHQEQVE [MTUS2]	4.85 ± 0.38	4.96 ± 0.11
MASFPPRVNEKEIVRLRTIGELLA [WSB1]	2.18 ± 0.3	2.14 ± 0.13
MATTVTCTRFTDEYQLYEDIGKGA [CAMK2B]	3.25 ± 0.2	3.31 ± 0.18
MCLFLQSLRQKQPERLCSGPGIVG [GMPPB]	2.27 ± 0.41	2.17 ± 0.46
MCQRLRSMQYNGSYFDRGAKGGSR [DFFB]	3.26 ± 0.26	3.48 ± 0.42
MCRLEELGLAGRCLTLTPRPATEA [HDAC6]	2.21 ± 0.22	2.27 ± 0.095

Sequence	protein stability index (treatment: DMSO)	protein stability index (treatment: MLN4924 1 uM, 8 h)
MDHIRIFQEQVEKLKALHVDSAEY [NR2F2]	3.07 ± 0.44	3.2 ± 0.36
MDSDFSHAFQKELTCVICLNYLVD [TRIM43]	2.6 ± 0.39	2.53 ± 0.44
MDVGETAMVTADSKYCYGPQGSRS [FKBP8]	4.36 ± 0.31	4.51 ± 0.23
MEAAREGHEEMVALLLGQGANINA [ANKRD17]	4.16 ± 0.17	4.15 ± 0.24
MESSKPGPVQVVLVQKDQHSFELD [ATL3]	4.35 ± 0.19	4.04 ± 0.33
MGFAAKAMKSVHENMDLNKIDDLM [CHMP4C]	3.59 ± 0.32	3.48 ± 0.3
MIGLYEPELGSGAGPAGTGTPSLL [EMID1]	3.89 ± 0.53	3.65 ± 0.71
MKCLKVGMLKEGVRLDRVRGGRQK [ESRRG]	3.5 ± 0.092	3.73 ± 0.21
MKDISNLEENDETRFILSKVPSEA [SLC6A17]	4.91 ± 0.24	4.94 ± 0.15
MKQGGAALEGSALANGRALSAGSP [DLX1]	4.67 ± 0.29	4.72 ± 0.13
MKSEEQKIKDARKGPLVPFPNQKS [KMT5A]	5.01 ± 0.18	5.23 ± 0.19
MMKAKGDLEMKEEEEISETGELVG [ZBED2]	5.59 ± 0.27	5.35 ± 0.26
MNLDIVDLLKKAKFHHSDCLSTWL [RHOBTB3]	2.53 ± 0.4	2.44 ± 0.63
MPPKKQAQAGGSKKAEQKKKEKII [ZC3H15]	4.63 ± 0.18	5.1 ± 0.39
MPSGSEEKILRELSEEEEDEEEEE [KCNA4]	5.53 ± 0.59	5.69 ± 0.14
MQHSFPEPGRLYLDLILAILALEL [TMEM192]	2.62 ± 0.41	2.45 ± 0.36
MQVFAKLGTDPTHVMGLYPDLLPT [VPS39]	2.16 ± 0.27	2.35 ± 0.25
MSFTTRSTFSTNYRSLGSVQAPSY [KRT18]	2.37 ± 0.29	2.38 ± 0.3
MSLVLHGNNLLVFGGTGIPFGESN [KLHDC10]	2.74 ± 0.69	2.81 ± 0.52
MTTLTHRARRTEISKNSEKKMESE [GOLPH3L]	5 ± 0.55	5.07 ± 0.18
MTVPATAIYFTAYDQLKAFLCGRA [SLC25A39]	2.35 ± 0.51	2.23 ± 0.33
MVATANNRQTFVNSAIRFLRKYSF [CHIT1]	2.65 ± 0.19	2.63 ± 0.14
